Laboratory results published in PMC8184781, “A histone H3K4me1-specific binding protein is required for siRNA accumulation and DNA methylation at a subset of loci targeted by RNA-directed DNA methylation” (Nature Communications, 2021).

Biological target: H4K20me1 peptide (monomethyllysine at K20)
Assay: ITC; Microcal PEAQ-ITC; peptide (about 1.0–1.5 mM) and protein (about 0.8–0.12 mM as printed) in 100 mM NaCl, 20 mM HEPES pH 7.0, 2 mM β-mercaptoethanol; 20 °C
Settings: both partners purified

B1: RDM15 Tudor domain (residues 598–662) (domain or fragment, Arabidopsis thaliana, UniProt Q8GUP3 598-662, looked up)
chain: LGQGKASGESLVGSRIKVWWPMDQAYYKGVVESYDAAKKKHLVIYDDGDQEILYLKNQKWSPLDE
notes: A Se-Met labelled form was also made; the structure was solved by SAD, so the crystal may hold the Se-Met protein; also called C-terminal Tudor domain of RDM15; source: E. coli BL21(DE3), purified (HisTrap, ulp1 digestion, second HisTrap, Superdex G75)
Kd: 22.9 µM
